B1: PTCH2-mCherry (receptor)
chain: MTRSPPLRELPPSYTPPARTAAPQILAGSLKAPLWLRAYFQGLLFSLGCGIQRHCGKVLFLGLLAFGALALGLRMAIIETNLEQLWVEVGSRVSQELHYTKEKLGEEAAYTSQMLIQTARQEGENILTPEALGLHLQAALTASKVQVSLYGKSWDLNKICYKSGVPLIENGMIERMIEKLFPCVILTPLDCFWEGAKLQGGSAYLPGRPDIQWTNLDPEQLLEELGPFASLEGFRELLDKAQVGQAYVGRPCLHPDDLHCPPSAPNHHSRQAPNVAHELSGGCHGFSHKFMHWQEELLLGGMARDPQGELLRAEALQSTFLLMSPRQLYEHFRGDYQTHDIGWSEEQASTVLQAWQRRFVQLAQEALPENASQQIHAFSSTTLDDILHAFSEVSAARVVGGYLLMLAYACVTMLRWDCAQSQGSVGLAGVLLVALAVASGLGLCALLGITFNAATTQVLPFLALGIGVDDVFLLAHAFTEALPGTPLQERMGECLQRTGTSVVLTSINNMAAFLMAALVPIPALRAFSLQAAIVVGCTFVAVMLVFPAILSLDLRRRHCQRLDVLCCFSSPCSAQVIQILPQELGDGTVPVGIAHLTATVQAFTHCEASSQHVVTILPPQAHLVPPPSDPLGSELFSPGGSTRDLLGQEEETRQKAACKSLPCARWNLAHFARYQFAPLLLQSHAKAIVLVLFGALLGLSLYGATLVQDGLALTDVVPRGTKEHAFLSAQLRYFSLYEVALVTQGGFDYAHSQRALFDLHQRFSSLKAVLPPPATQAPRTWLHYYRNWLQGIQAAFDQDWASGRITRHSYRNGSEDGALAYKLLIQTGDAQEPLDFSQLTTRKLVDREGLIPPELFYMGLTVWVSSDPLGLAASQANFYPPPPEWLHDKYDTTGENLRIPPAQPLEFAQFPFLLRGLQKTADFVEAIEGARAACAEAGQAGVHAYPSGSPFLFWEQYLGLRRCFLLAVCILLVCTFLVCALLLLNPWTAGLIVLVLAMMTVELFGIMGFLGIKLSAIPVVILVASVGIGVEFTVHVALGFLTTQGSRNLRAAHALEHTFAPVTDGAISTLLGLLMLAGSHFDFIVRYFFAALTVLTLLGLLHGLVLLPVLLSILGPPPEVIQMYKESPEILSPPAPQGGGLRWGASSSLPQSFARVTTSMTVAIHPPPLPGAYIHPAPDEPPWSPAATSSGNLSSRGPGPATG

How the values were obtained:
Assay in all cases: FRET or BRET
[1] = target: PTCH2-eGFP (not stated (printed entry Q9Y6C5 is human PTCH2)) (UniProt Q9Y6C5)
[2] = target: PTCH1-eGFP (enhanced green fluorescent protein-tagged human PTCH1) (human) (UniProt Q13635)
[3] = target: PTCH1-eGFP (enhanced green fluorescent protein-tagged human PTCH1) (human) (UniProt Q13635); remark: listed apart in the source

Row | magnitude of GFP signal change against PTCH1 homodimers [1] | net increase in GFP signal after mCherry photobleaching [2] | magnitude of GFP signal change against PTCH1 homodimers [3] | Molecule
1 | 50 % lower | > 10% | – | PTCH1-mCherry (from UniProt Q13635 1-1447) (receptor)
2 | – | – | 50 % lower | B1

From doi:10.1101/2023.08.08.549832
